From patent publication US20040186053A1 come the findings set out here.

Substitutions are numbered along the chain they refer to. Names may count otherwise.

Assay [1] addresses factor Xa (UniProt P00742). Nature of the assay: cell-based or functional assay.
For assay [2], the target named is factor Xa (UniProt P00742). Put plainly: cell-based or functional assay. This is another data set of the same source.

In turn, “antithrombin III (from UniProt P01008 33-464)” gave a t1/2 of inhibition of factor Xa by antithrombin III with PZ, cephalin and Ca++ ions (bioassay) in the assay with factor Xa [1] of 35 min.

With “human protein Z (PZ), isolated from citrated fresh frozen plasma (from UniProt P22891 41-400)”, in the assay with factor Xa [1], the Apparent Inhibition (%) of factor Xa, one-stage coagulation assay; incubation factor Xa 15 sec, PZ 120 sec came out at 70%; the Apparent Inhibition (%) of factor Xa, one-stage coagulation assay; incubation factor Xa 30 sec, PZ 120 sec worked out at 71%; the Apparent Inhibition (%) of factor Xa, one-stage coagulation assay; incubation factor Xa 60 sec, PZ 120 sec was found to be 73%; the Apparent Inhibition (%) of factor Xa, one-stage coagulation assay; incubation factor Xa 90 sec, PZ 120 sec turned out to be 76%. Besides, in the assay with factor Xa [1], the Apparent Inhibition (%) of factor Xa, one-stage coagulation assay; incubation factor Xa 120 sec, PZ 0 sec turned out to be 0%; the Apparent Inhibition (%) of factor Xa, one-stage coagulation assay; incubation factor Xa 120 sec, PZ 15 sec was 50%; the Apparent Inhibition (%) of factor Xa, one-stage coagulation assay; incubation factor Xa 120 sec, PZ 30 sec worked out at 61%; the Apparent Inhibition (%) of factor Xa, one-stage coagulation assay; incubation factor Xa 120 sec, PZ 60 sec stood at 72%. Moreover, in the assay with factor Xa [1], the Apparent Inhibition (%) of factor Xa, one-stage coagulation assay; incubation factor Xa 120 sec, PZ 90 sec came out at 76%; the Apparent Inhibition (%) of factor Xa, one-stage coagulation assay; incubation factor Xa 120 sec, PZ 120 sec was determined as 78%; the Apparent Inhibition (%) of factor Xa, one-stage coagulation assay; incubation factor Xa 120 sec, PZ 120 sec w/o Ca++ was found to be 0%; the Apparent Inhibition (%) of factor Xa, one-stage coagulation assay; incubation factor Xa 120 sec, PZ 120 sec w/o cephalin came out at 0%. In the assay with factor Xa [1], the Apparent factor Xa inhibition by inclusion of PZ during preincubation, plasma treated with preimmune IgG (clotting time) was found to be 76% and the molar ratio (PZ:factor Xa) from PZ dose/response of ZPI-mediated factor Xa inhibition, amidolytic assay (mol PZ per mol factor Xa) turned out to be 1.4.

The molecule “tissue factor pathway inhibitor (TFPI) (from UniProt P10646 29-304)” came in with an inhibition of the chromogenic activity of the factor Xa preparations with factor Xa [1] above 99%.

For “thrombin-cleaved PZ (PZT) (from UniProt P22891 84-400)”, in the assay with factor Xa [1], the Apparent Inhibition (%) of factor Xa, one-stage coagulation assay; incubation factor Xa 120 sec, PZT 120 sec turned out to be 0%.

B1: human protein Z-dependent protease inhibitor (ZPI), purified from human plasma (protein)
chain: LAPSPQSPETPAPQNQTSRVVQAPKEEEEDEQEASEEKASEEEKAWLMASRQQLAKETSNFGFSLLRKISMRHDGNMVFSPFGMSLAMTGLMLGATGPTETQIKRGLHLQALKPTKPGLLPSLFKGLRETLSRNLELGLTQGSFAFIHKDFDVKETFFNLSKRYFDTECVPMNFRNASQAKRLMNHYINKETRGKIPKLFDEINPETKLILVDYILFKGKWLTPFDPVFTEVDTFHLDKYKTIKVPMMYGAGKFASTFDKNFRCHVLKLPYQGNATMLVVLMEKMGDHLALEDYLTTDLVETWLRNMKTRNMEVFFPKFKLDQKYEMHELLRQMGIRRIFSPFADLSELSATGRNLQVSRVLQRTVIEVDERGTEAVAGILSEITAYSMPPVIKVDRPFHFMIYEETSGMLLFLGRVVNPTLL
modifications: Plasma glycoprotein with five potential N-linked glycosylation sites; the glycans are not carried by the letters.
In the assay with factor Xa [2], B1 returned a Maximal factor Xa inhibition, amidolytic assay, reached within <1 minute (with PZ, Ca++ ions, cephalin) of 70%; a Maximal factor Xa inhibition, bioassay, reached within <1 minute (with PZ, Ca++ ions, cephalin) of 97%; a factor Xa amidolytic activity that persists at relatively high concentrations of ZPI of 20%; a stoichiometry (ZPI:factor Xa) from ZPI dose/response, factor Xa amidolytic assay with PZ, CaCl2 and cephalin (mol ZPI per mol factor Xa) of 1.2.

B2: rZPI(Y387R), recombinant ZPI with tyrosine 387 changed to arginine (protein, UniProt Q9UK55 22-444 with Y387R, looked up)
Protein Z-dependent protease inhibitor: B1 chain with Y387R
B2 registered a ZPI activity of conditioned media, two-stage assay of PZ-dependent factor Xa inhibition in the assay with factor Xa [2] of 21 mU/mL.

B3: rZPI(Y387A), recombinant ZPI with tyrosine 387 changed to alanine (protein, UniProt Q9UK55 22-444 with Y387A, looked up)
Protein Z-dependent protease inhibitor: B1 chain with Y387A
In turn, B3 showed a ZPI activity of conditioned media, two-stage assay of PZ-dependent factor Xa inhibition with factor Xa [2] below 10 mU/mL.

B4: rZPI(WT), recombinant wild-type ZPI expressed in CHO cells (protein, UniProt Q9UK55 22-444, looked up)
Protein Z-dependent protease inhibitor: B1 chain
The molecule B4 returned a ZPI activity of conditioned media, two-stage assay of PZ-dependent factor Xa inhibition with factor Xa [2] of 375 mU/mL.
